According to the supplement of paper PMC5998384:

What was measured:
HeLa Kyoto [1] = assay: thermal stability score vs G1/S (z-score of summed log2 fold changes over temperatures); higher = more thermally stable than in G1/S
HeLa Kyoto [2] = assay: solubility change mitosis vs G1/S (difference of NP-40 vs SDS log2 ratios) (log2 ratio difference); higher = more soluble in mitosis
HeLa Kyoto [3] = assay: melting temperature (median over replicates), in situ; higher = more thermally stable
HeLa Kyoto [4] = assay: solubility in G1/S (NP-40 vs SDS abundance) (log2 ratio); higher = more soluble; settings: cell cycle stage: G1/S
[5] = cell cycle stage: early G1 (4.5 h after nocodazole release)
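Throughout, for melting temperature (median over replicates), in situ: HeLa Kyoto cells synchronized by double thymidine or nocodazole block, proteins quantified by TMT10plex mass spectrometry, three independent biological replicates.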
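Throughout, for solubility change mitosis vs G1/S (difference of NP-40 vs SDS log2 ratios): synchronized HeLa Kyoto cells (double thymidine block for G1/S, nocodazole release for mitosis), protein amounts in NP-40 versus SDS lysates quantified by mass spectrometry, three biological replicates.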
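Throughout, for solubility in G1/S (NP-40 vs SDS abundance): HeLa Kyoto cells arrested at G1/S by double thymidine block, proteins quantified by TMT10plex mass spectrometry in mild NP-40 versus SDS extracts, three biological replicates.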
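Throughout, for thermal stability score vs G1/S (z-score of summed log2 fold changes over temperatures): synchronized HeLa Kyoto cells, proteins quantified by TMT10plex mass spectrometry, three biological replicates, mitosis taken 0.5 h after nocodazole release, G1/S directly after double thymidine block.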

| Sequence | thermal stability score (HeLa Kyoto [1]; [5]) | thermal stability score (HeLa Kyoto [1]; cell cycle stage: mitosis) | solubility change mitosis (log2) (HeLa Kyoto [2]) | melting temperature (HeLa Kyoto [3]; cell cycle stage: G1/S) [°C] | melting temperature (HeLa Kyoto [3]; cell cycle stage: mitosis) [°C] | solubility in G1/S (log2) (HeLa Kyoto [4]) |
| --- | --- | --- | --- | --- | --- | --- |
| MKKASRSVGSVPKVSAISKTQTAEKIKPENSSSASTGGKLVKPGTAASLSKTKSSDDLLAGMAGGVTVTNGVKGKKSTCPSAAPSASAPAMTTVENKSKISTGTASSTKRSTSTGNKESSSTRERLRERTRLNQSKKLPSAGQGANDMALAKRSRSRTATECDVRMSKSKSDNQISDRAALEAKVKDLLTLAKTKDVEILHLRNELRDMRAQLGINEDHSEGDEKSEKETIMAHQPTDVESTLLQLQEQNTAIREELNQLKNENRMLKDRLNALGFSLEQRLDNSEKLFGYQSLSPEITPGNQSDGGGTLTSSVEGSAPGSVEDLLSQDENTLMDHQHSNSMDNLDSECSEVYQPLTSSDDALDAPSSSESEGIPSIERSRKGSSGNASEVSVACLTERIHQMEENQHSTSEELQATLQELADLQQITQELNSENERLGEEKVILMESLCQQSDKLEHFSRQIEYFRSLLDEHHISYVIDEDVKSGRYMELEQRYMDLAENARFEREQLLGVQQHLSNTLKMAEQDNKEAQEMIGALKERSHHMERIIESEQKGKAALAATLEEYKATVASDQIEMNRLKAQLENEKQKVAELYSIHNSGDKSDIQDLLESVRLDKEKAETLASSLQEDLAHTRNDANRLQDAIAKVEDEYRAFQEEAKKQIEDLNMTLEKLRSDLDEKETERSDMKETIFELEDEVEQHRAVKLHDNLIISDLENTVKKLQDQKHDMEREIKTLHRRLREESAEWRQFQADLQTAVVIANDIKSEAQEEIGDLKRRLHEAQEKNEKLTKELEEIKSRKQEEERGRVYNYMNAVERDLAALRQGMGLSRRSSTSSEPTPTVKTLIKSFDSASQVPNPAAAAIPRTPLSPSPMKTPPAAAVSPMQRHSISGPISTSKPLTALSDKRPNYGEIPVQEHLLRTSSASRPASLPRVPAMESAKTLSVSRRSSEEVKRDISAQEGASPASLMAMGTTSPQLSLSSSPTASVTPTTRSRIREERKDPLSALAREYGGSKRNALLKWCQKKTEGYQNIDITNFSSSWNDGLAFCALLHTYLPAHIPYQELNSQDKRRNFMLAFQAAESVGIKSTLDINEMVRTERPDWQNVMLYVTAIYKYFET [SPECC1L] | 0.147 | -0.333 | 0.448 | 50.8 | 50.7 | -0.183 |
| MKLIILEHYSQASEWAAKYIRNRIIQFNPGPEKYFTLGLPTGSTPLGCYKKLIEYYKNGDLSFKYVKTFNMDEYVGLPRDHPESYHSFMWNNFFKHIDIHPENTHILDGNAVDLQAECDAFEEKIKAAGGIELFVGGIGPDGHIAFNEPGSSLVSRTRVKTLAMDTILANARFFDGELTKVPTMALTVGVGTVMDAREVMILITGAHKAFALYKAIEEGVNHMWTVSAFQQHPRTVFVCDEDATLELKVKTVKYFKGLMLVHNKLVDPLYSIKEKETEKSQSSKKPYSD [GNPDA1] | -0.841 | -0.7 | -0.206 | 61.5 | 62.9 | 0.183 |
| MKLKDTKSRPKQSSCGKFQTKGIKVVGKWKEVKIDPNMFADGQMDDLVCFEELTDYQLVSPAKNPSSLFSKEAPKRKAQAVSEEEEEEEGKSSSPKKKIKLKKSKNVATEGTSTQKEFEVKDPELEAQGDDMVCDDPEAGEMTSENLVQTAPKKKKNKGKKGLEPSQSTAAKVPKKAKTWIPEVHDQKADVSAWKDLFVPRPVLRALSFLGFSAPTPIQALTLAPAIRDKLDILGAAETGSGKTLAFAIPMIHAVLQWQKRNAAPPPSNTEAPPGETRTEAGAETRSPGKAEAESDALPDDTVIESEALPSDIAAEARAKTGGTVSDQALLFGDDDAGEGPSSLIREKPVPKQNENEEENLDKEQTGNLKQELDDKSATCKAYPKRPLLGLVLTPTRELAVQVKQHIDAVARFTGIKTAILVGGMSTQKQQRMLNRRPEIVVATPGRLWELIKEKHYHLRNLRQLRCLVVDEADRMVEKGHFAELSQLLEMLNDSQYNPKRQTLVFSATLTLVHQAPARILHKKHTKKMDKTAKLDLLMQKIGMRGKPKVIDLTRNEATVETLTETKIHCETDEKDFYLYYFLMQYPGRSLVFANSISCIKRLSGLLKVLDIMPLTLHACMHQKQRLRNLEQFARLEDCVLLATDVAARGLDIPKVQHVIHYQVPRTSEIYVHRSGRTARATNEGLSLMLIGPEDVINFKKIYKTLKKDEDIPLFPVQTKYMDVVKERIRLARQIEKSEYRNFQACLHNSWIEQAAAALEIELEEDMYKGGKADQQEERRRQKQMKVLKKELRHLLSQPLFTESQKTKYPTQSGKPPLLVSAPSKSESALSCLSKQKKKKTKKPKEPQPEQPQPSTSAN [DDX24] | -0.338 | 1.04 | 1.07 | 49.9 | 50.5 | -1.47 |
| MKLKEVDRTAMQAWSPAQNHPIYLATGTSAQQLDATFSTNASLEIFELDLSDPSLDMKSCATFSSSHRYHKLIWGPYKMDSKGDVSGVLIAGGENGNIILYDPSKIIAGDKEVVIAQNDKHTGPVRALDVNIFQTNLVASGANESEIYIWDLNNFATPMTPGAKTQPPEDISCIAWNRQVQHILASASPSGRATVWDLRKNEPIIKVSDHSNRMHCSGLAWHPDVATQMVLASEDDRLPVIQMWDLRFASSPLRVLENHARGILAIAWSMADPELLLSCGKDAKILCSNPNTGEVLYELPTNTQWCFDIQWCPRNPAVLSAASFDGRISVYSIMGGSTDGLRQKQVDKLSSSFGNLDPFGTGQPLPPLQIPQQTAQHSIVLPLKKPPKWIRRPVGASFSFGGKLVTFENVRMPSHQGAEQQQQQHHVFISQVVTEKEFLSRSDQLQQAVQSQGFINYCQKKIDASQTEFEKNVWSFLKVNFEDDSRGKYLELLGYRKEDLGKKIALALNKVDGANVALKDSDQVAQSDGEESPAAEEQLLGEHIKEEKEESEFLPSSGGTFNISVSGDIDGLITQALLTGNFESAVDLCLHDNRMADAIILAIAGGQELLARTQKKYFAKSQSKITRLITAVVMKNWKEIVESCDLKNWREALAAVLTYAKPDEFSALCDLLGTRLENEGDSLLQTQACLCYICAGNVEKLVACWTKAQDGSHPLSLQDLIEKVVILRKAVQLTQAMDTSTVGVLLAAKMSQYANLLAAQGSIAAALAFLPDNTNQPNIMQLRDRLCRAQGEPVAGHESPKIPYEKQQLPKGRPGPVAGHHQMPRVQTQQYYPHGENPPPPGFIMHGNVNPNAAGQLPTSPGHMHTQVPPYPQPQPYQPAQPYPFGTGGSAMYRPQQPVAPPTSNAYPNTPYISSASSYTGQSQLYAAQHQASSPTSSPATSFPPPPSSGASFQHGGPGAPPSSSAYALPPGTTGTLPAASELPASQRTGPQNGWNDPPALNRVPKKKKMPENFMPPVPITSPIMNPLGDPQSQMLQQQPSAPVPLSSQSSFPQPHLPGGQPFHGVQQPLGQTGMPPSFSKPNIEGAPGAPIGNTFQHVQSLPTKKITKKPIPDEHLILKTTFEDLIQRCLSSATDPQTKRKLDDASKRLEFLYDKLREQTLSPTITSGLHNIARSIETRNYSEGLTMHTHIVSTSNFSETSAFMPVLKVVLTQANKLGV [SEC31A] | 1.55 | 4.43 | -0.144 | 48.9 | 50 | 0.0843 |
| MKLKQRVVLLAILLVIFIFTKVFLIDNLDTSAANREDQRAFHRMMTGLRVELAPKLDHTLQSPWEIAAQWVVPREVYPEETPELGAVMHAMATKKIIKADVGYKGTQLKALLILEGGQKVVFKPKRYSRDHVVEGEPYAGYDRHNAEVAAFHLDRILGFHRAPLVVGRFVNLRTEIKPVATEQLLSTFLTVGNNTCFYGKCYYCRETEPACADGDIMEGSVTLWLPDVWPLQKHRHPWGRTYREGKLARWEYDESYCDAVKKTSPYDSGPRLLDIIDTAVFDYLIGNADRHHYESFQDDEGASMLILLDNAKSFGNPSLDERSILAPLYQCCIIRVSTWNRLNYLKNGVLKSALKSAMAHDPISPVLSDPHLDAVDQRLLSVLATVKQCTDQFGMDTVLVEDRMPLSHL [FAM20B] | 2.65 | 2.53 | 0.0415 | 51.8 | 53.3 | -0.162 |
| MKLSLTKVVNGCRLGKIKNLGKTGDHTMDIPGCLLYTKTGSAPHLTHHTLHNIHGVPAMAQLTLSSLAEHHEVLTEYKEGVGKFIGMPESLLYCSLHDPVSPCPAGYVTNKSVSVWSVAGRVEMTVSKFMAIQKALQPDWFQCLSDGEVSCKEATSIKRVRKSVDRSLLFLDNCLRLQEESEVLQKSVIIGVIEGGDVMEERLRSARETAKRPVGGFLLDGFQGNPTTLEARLRLLSSVTAELPEDKPRLISGVSRPDEVLECIERGVDLFESFFPYQVTERGCALTFSFDYQPNPEETLLQQNGTQEEIKCMDQIKKIETTGCNQEITSFEINLKEKKYQEDFNPLVRGCSCYCCKNHTRAYIHHLLVTNELLAGVLLMMHNFEHYFGFFHYIREALKSDKLAQLKELIHRQAS [QTRTD1] | -0.725 | -2.32 | -0.121 | 54.6 | 54.3 | 0.116 |
| MKLWVSALLMAWFGVLSCVQAEFFTSIGHMTDLIYAEKELVQSLKEYILVEEAKLSKIKSWANKMEALTSKSAADAEGYLAHPVNAYKLVKRLNTDWPALEDLVLQDSAAGFIANLSVQRQFFPTDEDEIGAAKALMRLQDTYRLDPGTISRGELPGTKYQAMLSVDDCFGMGRSAYNEGDYYHTVLWMEQVLKQLDAGEEATTTKSQVLDYLSYAVFQLGDLHRALELTRRLLSLDPSHERAGGNLRYFEQLLEEEREKTLTNQTEAELATPEGIYERPVDYLPERDVYESLCRGEGVKLTPRRQKRLFCRYHHGNRAPQLLIAPFKEEDEWDSPHIVRYYDVMSDEEIERIKEIAKPKLARATVRDPKTGVLTVASYRVSKSSWLEEDDDPVVARVNRRMQHITGLTVKTAELLQVANYGVGGQYEPHFDFSRNDERDTFKHLGTGNRVATFLNYMSDVEAGGATVFPDLGAAIWPKKGTAVFWYNLLRSGEGDYRTRHAACPVLVGCKWVSNKWFHERGQEFLRPCGSTEVD [P4HA2] | 2.83 | 4.61 | -0.0711 | 54.2 | 54.1 | 0.0555 |
| MKMKLFQTICRQLRSSKFSVESAALVAFSTSSYSCGRKKKVNPYEEVDQEKYSNLVQSVLSSRGVAQTPGSVEEDALLCGPVSKHKLPNQGEDRRVPQNWFPIFNPERSDKPNASDPSVPLKIPLQRNVIPSVTRVLQQTMTKQQVFLLERWKQRMILELGEDGFKEYTSNVFLQGKRFHEALESILSPQETLKERDENLLKSGYIESVQHILKDVSGVRALESAVQHETLNYIGLLDCVAEYQGKLCVIDWKTSEKPKPFIQSTFDNPLQVVAYMGAMNHDTNYSFQVQCGLIVVAYKDGSPAHPHFMDAELCSQYWTKWLLRLEEYTEKKKNQNIQKPEYSE [MGME1] | -0.736 | -1.05 | 0.0664 | 52.9 | 53.5 | 0.384 |
| MKPSGEDQAALAAGPWEECFQAAVQLALRAGQIIRKALTEEKRVSTKTSAADLVTETDHLVEDLIISELRERFPSHRFIAEEAAASGAKCVLTHSPTWIIDPIDGTCNFVHRFPTVAVSIGFAVRQELEFGVIYHCTEERLYTGRRGRGAFCNGQRLRVSGETDLSKALVLTEIGPKRDPATLKLFLSNMERLLHAKAHGVRVIGSSTLALCHLASGAADAYYQFGLHCWDLAAATVIIREAGGIVIDTSGGPLDLMACRVVAASTREMAMLIAQALQTINYGRDDEK [IMPA2] | -0.528 | -0.16 | -0.261 | 58.2 | 60.1 | 0.109 |
